# Test results as given in US20200270125A1 (OMEROS, published 2020).
# B1: MASP-3 mAb 13B1 (mouse-human chimeric IgG4) (antibody, V domains shown)
# VH: QVQLKQSGAELMKPGASVKLSCKATGYTFTGKWIEWVKQRPGHGLEWIGEILPGTGSTNYNEKFKGKATFTADSSSNTAYMQLSSLTTEDSAMYYCLRSEDVWGTGTTVTVSS
# VL: DIVMTQSPSSLAVSAGEKVTMSCKSSQSLLNSRTRKNYLAWYQQKPGQSPKLLIYWASTRESGVPDRFTGSGSGTDFTLTISSVQAEDLAVYYCKQSYNIPTFGGGTKLEIKR
# notes: also called mAb M3-1; M3-1
# B2: 13B1 Parental Fab (Fab, V domains shown)
# VH: B1 VH
# VL: B1 VL
# notes: Monovalent Fab; also called M3-1 Fab; 13B1 Fab
# How the values were obtained:
# [1] = target: T1, human MASP-3 CCP1-CCP2-SP fragment (human); assay: sandwich ELISA: human MASP-3 CCP1-CCP2-SP captured on aM3-259, mAb detected with anti-human kappa-HRP, A450
# T1 construct: limits of the assay construct are not restated; also called rMASP-3 (CCP1-CCP2-SP)
# T1 chain: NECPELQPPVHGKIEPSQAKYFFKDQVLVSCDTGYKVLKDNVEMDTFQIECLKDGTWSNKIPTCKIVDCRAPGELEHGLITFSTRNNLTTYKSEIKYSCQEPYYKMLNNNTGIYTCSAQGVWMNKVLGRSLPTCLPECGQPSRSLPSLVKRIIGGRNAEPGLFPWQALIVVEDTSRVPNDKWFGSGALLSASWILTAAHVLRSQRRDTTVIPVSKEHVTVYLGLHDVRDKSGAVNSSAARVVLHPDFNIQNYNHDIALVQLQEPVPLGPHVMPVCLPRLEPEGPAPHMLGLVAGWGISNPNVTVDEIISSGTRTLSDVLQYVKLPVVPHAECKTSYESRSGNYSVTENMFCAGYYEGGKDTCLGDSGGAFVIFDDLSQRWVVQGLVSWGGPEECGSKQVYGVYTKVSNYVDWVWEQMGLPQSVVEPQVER
# Protocol: The plate was then washed (PBS-T, 0.05%) and the candidate MASP-3 antibodies were added followed by incubation for one hour at room temperature. The plate was washed (PBS-T, 0.05%) and a detection antibody was added (mouse anti-human kappa-HRP, SouthernBiotech #9230-05) for one hour at room temperature. After another wash (PBS-T, 0.05%) the plate was developed (5 minutes) with OPT EIA TMB (BD Biosciences #555214). Absorbance reading at A450 was measured using the Spectramax M5e plate reader.
# [2] = target: T2, human MASP-3 (construct not stated) (human); assay: not described at this place
# T2 construct: also called MASP-3 antigen
# T2 chain: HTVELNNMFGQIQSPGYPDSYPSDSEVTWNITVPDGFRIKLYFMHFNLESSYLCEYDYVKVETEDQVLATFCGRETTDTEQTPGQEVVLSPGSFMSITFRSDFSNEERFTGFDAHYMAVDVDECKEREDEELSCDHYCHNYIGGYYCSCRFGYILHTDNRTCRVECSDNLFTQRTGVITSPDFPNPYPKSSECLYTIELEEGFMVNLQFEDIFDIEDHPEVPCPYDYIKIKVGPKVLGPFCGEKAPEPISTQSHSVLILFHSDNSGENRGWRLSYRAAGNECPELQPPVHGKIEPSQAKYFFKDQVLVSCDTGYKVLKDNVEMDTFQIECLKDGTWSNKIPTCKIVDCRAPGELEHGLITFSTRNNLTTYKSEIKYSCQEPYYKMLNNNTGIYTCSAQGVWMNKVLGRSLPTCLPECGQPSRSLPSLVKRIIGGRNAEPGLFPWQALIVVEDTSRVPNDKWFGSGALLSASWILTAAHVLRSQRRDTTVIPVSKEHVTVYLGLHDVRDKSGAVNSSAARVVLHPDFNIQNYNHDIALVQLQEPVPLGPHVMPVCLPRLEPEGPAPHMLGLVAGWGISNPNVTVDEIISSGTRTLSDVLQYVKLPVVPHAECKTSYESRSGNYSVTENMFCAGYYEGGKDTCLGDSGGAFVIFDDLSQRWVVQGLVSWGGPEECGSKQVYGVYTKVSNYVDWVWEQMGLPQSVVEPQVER
# [3] = target: T3, recombinant human MASP-1A (S646A, CCP1-CCP2-SP fragment) (human, UniProt P48740 298-699, limits assumed); assay: ELISA: recombinant MASP-1A (S646A, CCP1-CCP2-SP) coated directly on the plate, A450
# T3 chain: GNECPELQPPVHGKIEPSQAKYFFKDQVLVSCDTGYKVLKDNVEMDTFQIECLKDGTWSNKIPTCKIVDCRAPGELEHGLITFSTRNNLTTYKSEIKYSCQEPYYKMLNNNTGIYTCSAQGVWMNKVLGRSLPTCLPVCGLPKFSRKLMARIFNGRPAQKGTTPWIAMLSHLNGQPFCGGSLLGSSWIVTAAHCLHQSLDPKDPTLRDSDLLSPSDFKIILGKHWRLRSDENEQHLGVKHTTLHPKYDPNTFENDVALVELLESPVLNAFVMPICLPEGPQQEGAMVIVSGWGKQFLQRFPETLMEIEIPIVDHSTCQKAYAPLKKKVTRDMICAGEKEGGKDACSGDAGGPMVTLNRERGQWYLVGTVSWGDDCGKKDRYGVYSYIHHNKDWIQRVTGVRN
# Outline: (§1)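 Candidate MASP-3 antibodies incubated 1 h at room temperature on the prepared plate, then detected with mouse anti-human kappa-HRP for 1 h. Developed 5 min with TMB; absorbance read at 450 nm.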
# [4] = target: T2, human MASP-3 (construct not stated); assay: cell-based or functional assay
# [5] = target: T1, human MASP-3 CCP1-CCP2-SP fragment; assay: cell-based or functional assay
# [6] = target: T4, recombinant human MASP-2 (CCP1-CCP2-SP fragment) (human, UniProt O00187 298-686, limits assumed); assay: ELISA: recombinant MASP-2 (CCP1-CCP2-SP) coated directly on the plate, A450
# T4 construct: domain: CCP1-CCP2-SP fragment
# Outline: as §1
# [7] = target: T2, human MASP-3 (construct not stated); assay: cell-based or functional assay
# [8] = target: T1, human MASP-3 CCP1-CCP2-SP fragment; assay: sandwich ELISA, MASP-3 CCP1-CCP2-SP captured by αM3-259
# Outline: as §1
# [9] = target: T5, recombinant full-length mouse MASP-3 (mouse); assay: sandwich ELISA, full-length mouse MASP-3 captured by αM3-259
# T5 construct: Entry is with leader; also called mouse full length MASP-3
# T5 chain: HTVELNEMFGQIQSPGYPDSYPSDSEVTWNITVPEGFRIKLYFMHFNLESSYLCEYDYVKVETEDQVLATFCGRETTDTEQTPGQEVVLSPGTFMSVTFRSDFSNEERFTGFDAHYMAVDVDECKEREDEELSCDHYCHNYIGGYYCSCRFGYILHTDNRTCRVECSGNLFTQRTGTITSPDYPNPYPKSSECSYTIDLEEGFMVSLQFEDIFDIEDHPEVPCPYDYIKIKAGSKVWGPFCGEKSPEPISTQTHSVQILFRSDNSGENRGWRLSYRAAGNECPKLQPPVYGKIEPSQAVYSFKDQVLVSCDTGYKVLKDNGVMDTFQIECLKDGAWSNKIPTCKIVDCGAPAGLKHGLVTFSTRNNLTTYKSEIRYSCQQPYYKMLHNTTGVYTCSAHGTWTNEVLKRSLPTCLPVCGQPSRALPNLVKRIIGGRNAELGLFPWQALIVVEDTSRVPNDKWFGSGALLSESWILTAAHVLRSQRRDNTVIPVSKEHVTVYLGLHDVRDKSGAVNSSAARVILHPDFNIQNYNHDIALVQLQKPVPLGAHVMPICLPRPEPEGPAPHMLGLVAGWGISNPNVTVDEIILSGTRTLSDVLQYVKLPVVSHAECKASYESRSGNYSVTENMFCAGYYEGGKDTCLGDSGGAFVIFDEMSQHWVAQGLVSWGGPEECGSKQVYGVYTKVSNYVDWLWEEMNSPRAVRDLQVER
# Outline: as §1
# [10] = target: T5, recombinant full-length mouse MASP-3; assay: ELISA, full-length mouse MASP-3 held by a capture antibody, monovalent Fab, anti-kappa-HRP
# From the text: (§2) Binding affinity determinations were made by coating 96-well plates with an anti-MASP-3 capture antibody that binds the protein from multiple species.
# [11] = target: T2, human MASP-3 (construct not stated); assay: ELISA, monovalent Fab
# [12] = target: T2, human MASP-3 (construct not stated); assay: cross-species binding experiments
# [13] = target: T6, recombinant full-length human MASP-3 (human); assay: ELISA, full-length human MASP-3 held by a capture antibody, monovalent Fab, anti-kappa-HRP
# T6 construct: Recombinant, full-length; also called full-length human MASP-3 protein; rMASP-3 (full-length)
# T6 chain: T2 chain
# From the text: as §2
# T4 sequence (O00187 298-686 limits assumed): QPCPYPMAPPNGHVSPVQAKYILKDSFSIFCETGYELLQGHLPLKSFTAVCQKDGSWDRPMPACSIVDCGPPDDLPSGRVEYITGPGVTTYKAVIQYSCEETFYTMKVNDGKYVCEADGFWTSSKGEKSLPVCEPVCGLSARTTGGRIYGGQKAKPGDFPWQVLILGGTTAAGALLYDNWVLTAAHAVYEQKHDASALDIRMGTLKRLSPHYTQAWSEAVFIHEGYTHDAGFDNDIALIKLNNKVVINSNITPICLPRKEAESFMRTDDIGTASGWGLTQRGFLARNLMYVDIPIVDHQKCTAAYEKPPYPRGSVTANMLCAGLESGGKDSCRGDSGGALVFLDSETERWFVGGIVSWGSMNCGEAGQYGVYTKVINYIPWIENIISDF
binder,measurement,setting,value
B1,EC50,[1],0.089 nM
same,binding affinity,[2],≤ 500 pM
same,binding result,[3],no binding (tested: about 20 nM (log10 about 1.3))
same,"IC50, factor Bb deposition on zymosan in 10% CFD-depleted human serum with pro-CFD (flow cytometry)",[4],0.311 nM
same,inhibition of MASP-3-dependent fluorogenic tripeptide (BOC-V-P-R-AMC) cleavage,[5],30.1 nM
same,binding result,[6],no binding (tested: about 20 nM (log10 about 1.3))
same,"Inhibition of Factor Bb Deposition on Zymosan (IC50 nM), 10% factor D-depleted human serum with pro-factor D",[7],0.3 nM
same,EC50,[8],0.059 nM
same,EC50,[9],0.035 nM
B2,EC50,[10],~0.214 nM
same,EC50,[11],0.123 nM
same,avidity,[12],< 500 pM
same,EC50,[13],~0.117 nM
